The values below come from patent publication US7893197B2, “Relaxin-3 chimeric polypeptides and their preparation and use” (Janssen Pharmaceutica N.V., priority 2005, dated 2011).

Test [1] addresses T1, GPCR135 (Homo sapiens, UniProt Q9NSD7).
T1 construct: expressed in transfected cells
T1 sequence (Q9NSD7 1-469): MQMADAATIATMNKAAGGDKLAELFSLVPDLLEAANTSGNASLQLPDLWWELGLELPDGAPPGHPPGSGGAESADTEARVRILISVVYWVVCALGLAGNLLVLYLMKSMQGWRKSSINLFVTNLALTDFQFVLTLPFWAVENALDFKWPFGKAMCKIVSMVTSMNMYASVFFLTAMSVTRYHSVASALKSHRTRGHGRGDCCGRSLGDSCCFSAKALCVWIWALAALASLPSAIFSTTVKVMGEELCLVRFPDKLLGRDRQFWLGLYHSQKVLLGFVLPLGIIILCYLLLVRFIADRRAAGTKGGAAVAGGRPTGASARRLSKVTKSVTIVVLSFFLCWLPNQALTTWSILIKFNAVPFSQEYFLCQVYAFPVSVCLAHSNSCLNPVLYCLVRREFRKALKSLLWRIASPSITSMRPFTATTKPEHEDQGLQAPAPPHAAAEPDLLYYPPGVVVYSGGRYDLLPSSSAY
Briefly: Inhibition of forskolin stimulated β-galactosidase expression in SK-N-MC/β-gal cells. The format is cell-based. Conditions: for EC50 to activate GPCR135: inhibition of 5 μM forskolin stimulated β-galactosidase expression, mean ± SEM, n = 3.
Procedure: (§8) Different chimeric polypeptides at various concentrations were added to SK-N-MC/β-gal cells expressing human GPCR135 (FIG. 4A) or GPCR142 (FIG. 4B) to inhibit forskolin stimulated β-galactosidase expression. […] In parallel, chimeric polypeptides at various concentrations were added to SK-N-MC/β-gal cells expressing human LGR7 (FIG. 4C) and LGR8 (FIG. 4D) to stimulate β-galactosidase expression. Relaxin-3 and INSL3 were used as positive controls for LGR7 and LGR8, respectively. Intracellular β-galactosidase activity was measured by a colorimetric assay using CRGP as the substrate and reading the absorbance at wavelength of 570 nm. Data represent mean±SEM (n=3).

Another test addresses T2, GPCR142 (Homo sapiens, UniProt Q8TDU9, L329S).
T2 construct: expressed in transfected cells
The description is as above. The class given is cell-based. As to conditions: for EC50 to activate GPCR142: inhibition of 5 μM forskolin stimulated β-galactosidase expression, mean ± SEM, n = 3.

In test [2] the target is T3, LGR7 (Homo sapiens, UniProt Q9HBX9).
T3 construct: Human LGR7 cDNA containing the complete coding region was PCR amplified; expressed in transfected cells
T3 sequence (Q9HBX9 1-757): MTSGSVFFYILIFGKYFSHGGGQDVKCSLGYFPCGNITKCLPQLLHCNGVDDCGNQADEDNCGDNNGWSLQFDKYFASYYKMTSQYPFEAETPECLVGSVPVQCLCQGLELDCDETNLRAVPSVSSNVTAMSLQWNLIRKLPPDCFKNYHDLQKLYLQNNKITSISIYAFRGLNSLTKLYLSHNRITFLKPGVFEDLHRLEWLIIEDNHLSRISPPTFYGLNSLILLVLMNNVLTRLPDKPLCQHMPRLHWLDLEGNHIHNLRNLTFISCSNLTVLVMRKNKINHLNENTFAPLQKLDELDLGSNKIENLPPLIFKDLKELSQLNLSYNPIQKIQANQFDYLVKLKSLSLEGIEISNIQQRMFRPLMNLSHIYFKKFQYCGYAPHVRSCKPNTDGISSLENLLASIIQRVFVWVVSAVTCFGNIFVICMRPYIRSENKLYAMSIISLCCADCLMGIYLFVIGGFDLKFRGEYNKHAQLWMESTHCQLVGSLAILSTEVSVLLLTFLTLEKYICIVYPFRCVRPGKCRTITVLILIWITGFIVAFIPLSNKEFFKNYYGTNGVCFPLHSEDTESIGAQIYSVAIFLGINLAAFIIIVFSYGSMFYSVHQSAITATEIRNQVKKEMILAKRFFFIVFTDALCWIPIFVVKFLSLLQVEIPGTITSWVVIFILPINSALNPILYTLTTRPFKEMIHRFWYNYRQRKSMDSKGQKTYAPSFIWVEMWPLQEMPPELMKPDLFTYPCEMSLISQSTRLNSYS
In words: Radioligand competition binding, [125I]-relaxin-3, live transfected COS-7 cells. As to conditions: [125I]-relaxin-3 100 pM; mean ± SEM, n = 3. In general terms: In a radioligand displacement assay an active substance lowers the binding of a labelled ligand.
Procedure: For GPCR135, GPCR142, and LGR7, [^125I]-relaxin-3 was used as the radioligand at a final concentration of 100 pM. Different unlabeled peptides were used in the binding assay as the competitors. […] Different unlabeled peptides including relaxin-3 chimeras at various concentrations were added to the binding assay as the competitors. Data represent mean±SEM (n=3).
Radioligand binding assays for LGR7 and LGR8 were performed using live COS-7 cells transiently transfected with LGR7 or LGR8 expression plasmids in 15-cm culture dishes using LipofectAmine (Invitrogen). Two days after transfection, the transfected cells were detached from the 15-cm culture dished using phosphate buffered saline (PBS) plus 10 mM EDTA, seeded into 96-well opaque poly-D-lysine coated culture plates and used for radioligand binding assays. For LGR7, [^125I]-relaxin-3 was used as the tracer. […] [^125I]-labeled tracer was added in binding reactions at a final concentration of 100 pM in binding buffer containing DMEM plus 50 mM HEPES and 1% bovine serum albumin. Unlabeled relaxin-3 and relaxin-3 chimeric polypeptides were added at various concentrations to the binding assays as the competitors, as indicated (FIG. 3). The binding mixtures were incubated at room temperature for 1 hour. The unbound radioligand was removed by aspiration of the binding buffer. The cells were washed with PBS. The bound radioligand was counted in a scintillation counter (TopCount/NTX). The results were analyzed using Prism 3.0 program (Graphpad, San Diego, Calif.). The IC50 values represent the ligand concentrations that inhibit 50% of the maximum specific binding.

Another test has as its target T4, LGR8 (Homo sapiens, UniProt Q8WXD0).
T4 construct: Human LGR8 cDNA containing the complete coding region was PCR amplified; expressed in transfected cells
Briefly: Stimulation of β-galactosidase expression in SK-N-MC/β-gal cells. The format is cell-based. As for the experimental part: (§1) FIGS. 1A-1D show the activation of GPCR135 and GPCR142 by relaxin-3 B-chain, but not of LGR7 or LGR8. In FIG. 1A, SK-N-MC/β-gal cells expressing human GPCR135 were stimulated with relaxin-3, relaxin-3 B-chain, porcine relaxin, or INSL3 at various concentrations to inhibit the forskolin stimulated β-galactosidase expression. Forskolin was added to cells at a final concentration of 5 μM to stimulate the β-galactosidase expression. FIG. 1B depicts results for SK-N-MC/β-gal cells expressing human GPCR142 stimulated as in FIG. 1A. In FIG. 1C, SK-N-MC/β-gal cells expressing human LGR7 were stimulated with relaxin-3, relaxin-3 B-chain, porcine relaxin, and INSL3 at various concentrations to induce the β-galactosidase expression. The intracellular β-galactosidase activities were measured by a colorimetric assay using CRGP as the substrate and reading the absorbance at a wavelength of 570 nm. For FIG. 1D, SK-N-MC/β-gal cells expressing human LGR8 were stimulated as in FIG. 1C.
(§2) FIGS. 4A-4D illustrate the evaluation of the agonist activity of relaxin-3 chimeric polypeptides in biofunctional assays. Different chimeric polypeptides at various concentrations were added to SK-N-MC/β-gal cells expressing human GPCR135 (FIG. 4A) or GPCR142 (FIG. 4B) to inhibit forskolin stimulated β-galactosidase expression. Human relaxin-3 was used as the positive control. In parallel, chimeric polypeptides at various concentrations were added to SK-N-MC/β-gal cells expressing human LGR7 (FIG. 4C) and LGR8 (FIG. 4D) to stimulate β-galactosidase expression. Relaxin-3 and INSL3 were used as positive controls for LGR7 and LGR8, respectively. Intracellular β-galactosidase activity was measured by a colorimetric assay using CRGP as the substrate and reading the absorbance at wavelength of 570 nm. Data represent mean±SEM (n=3).
(§3) It has been shown that synthetic human relaxin-3 B-chain alone, but not A-chain, is an agonist for both GPCR135 and GPCR142 (Liu et al., 2003, Journal of Biological Chemistry, 278:50754-50764 and Liu et al., 2003, Journal of Biological Chemistry, 278:50765-50770). Those studies were repeated herein in SK-N-MC/β-gal cells, which harbor a β-galactosidase gene under the control of a cAMP responsive element (CRE) (Liu et al., 2001, Molecular Pharmacology, 59:420-426). In such SK-N-MC/β-gal cells, an increase in intracellular cAMP concentration leads to increased β-galactosidase gene expression, the activity of which is measured using Chlorophenol Red-β-D-Galactopyranoside (CPRG) as the substrate.
(§4) The inventive chimeric polypeptides were each independently tested for their ability to activate either GPCR135, GPCR142, LGR7, or LGR8, respectively, in separate pools of SK-N-MC/β-gal cells (see supra), each pool stably expressing one of the respective receptors, as indicated (FIG. 4).
(§5) Cells were seeded in 96-well tissue culture plate at a density of 30,000 cells/well in MEM plus 10% fetal serum, sodium pyruvate, penicillin, streptomycin, and G418 (400 mg/L). For cells expressing GPCR135 or GPCR142, forskolin was added to cells at a final concentration of 5 μM to stimulate intracellular cAMP accumulation. Different concentrations of each of the inventive polypeptides were then added to the cells to inhibit the forskolin induced cAMP accumulation. For cells expressing LGR7 or LGR8, intracellular cAMP was stimulated with each of the inventive chimeric polypeptides at various concentrations.
(§6) For all cells, after adding the chimeric polypeptides, cells were incubated for 6 additional hours in 37° C. incubator. The media was then aspirated and the β-galactosidase activities measured as previously described (Liu et al., 2001, Molecular Pharmacology, 59:420-426). The results were analyzed by Prism 3.0 software. […]

The target of test [3] is T1, GPCR135. In words: Binding of radioligands to COS-7 cells transfected with GPCR135. Conditions: radioligand 100 pM. The method, then: (§7) FIGS. 5A-5D illustrate a comparative analysis of the binding specificities of [^125I]-relaxin-3 and [^125I]-R3/I5 for GPCR135 and LGR7. COS-7 cells in 6-well culture dishes were transfected with human GPCR135 and LGR7, respectively. Mock transfected COS-7 cells were used as the negative controls. [^125I]-relaxin-3 (FIG. 5A) or [^125I]-R3/I5 (FIG. 5B) was added to cells at a final concentration of 100 pM either in the absence or presence of 1 uM of unlabeled relaxin-3 to determine total binding and non-specific binding, respectively. FIG. 5C depicts an autoradiogram of [^125]-relaxin-3 binding in rat brain sagittal section. FIG. 5D depicts an autoradiogram of non-specific binding of [^125]-relaxin-3 as determined in the presence of 100 nM of unlabeled relaxin-3. FIG. 5E depicts an autoradiogram of [^125]-R3/I5 binding in rat brain sagittal section. […] binding of [^125]-R3/I5 as determined in the presence of 100 nM of unlabeled relaxin-3.

Test [4] deals with T3, LGR7. Briefly: Binding of radioligands to COS-7 cells transfected with LGR7. Conditions: radioligand 100 pM. The method, then: as §7
Test [5] deals with T3, LGR7. Briefly: Stimulation of β-galactosidase expression in SK-N-MC/β-gal cells. The format is cell-based. Conditions: ligand stimulated β-galactosidase expression; mean ± SEM, n = 3; read-out: EC50 to activate LGR7. The method, then:
as §1, §2, §3, §4, §5, §6

Ends that are not written are not given here.

T2 sequence (Q8TDU9 whole entry L329S): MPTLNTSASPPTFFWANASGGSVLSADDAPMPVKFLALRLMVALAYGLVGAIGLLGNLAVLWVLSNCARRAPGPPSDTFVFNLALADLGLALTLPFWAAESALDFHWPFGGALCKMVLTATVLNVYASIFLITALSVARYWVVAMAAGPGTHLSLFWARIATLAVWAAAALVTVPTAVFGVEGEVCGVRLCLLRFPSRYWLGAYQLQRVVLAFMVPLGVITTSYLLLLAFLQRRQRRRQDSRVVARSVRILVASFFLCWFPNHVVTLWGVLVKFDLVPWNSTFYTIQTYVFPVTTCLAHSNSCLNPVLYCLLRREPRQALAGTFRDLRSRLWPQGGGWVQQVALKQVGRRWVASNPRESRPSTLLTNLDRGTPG
T4 sequence (Q8WXD0 whole entry): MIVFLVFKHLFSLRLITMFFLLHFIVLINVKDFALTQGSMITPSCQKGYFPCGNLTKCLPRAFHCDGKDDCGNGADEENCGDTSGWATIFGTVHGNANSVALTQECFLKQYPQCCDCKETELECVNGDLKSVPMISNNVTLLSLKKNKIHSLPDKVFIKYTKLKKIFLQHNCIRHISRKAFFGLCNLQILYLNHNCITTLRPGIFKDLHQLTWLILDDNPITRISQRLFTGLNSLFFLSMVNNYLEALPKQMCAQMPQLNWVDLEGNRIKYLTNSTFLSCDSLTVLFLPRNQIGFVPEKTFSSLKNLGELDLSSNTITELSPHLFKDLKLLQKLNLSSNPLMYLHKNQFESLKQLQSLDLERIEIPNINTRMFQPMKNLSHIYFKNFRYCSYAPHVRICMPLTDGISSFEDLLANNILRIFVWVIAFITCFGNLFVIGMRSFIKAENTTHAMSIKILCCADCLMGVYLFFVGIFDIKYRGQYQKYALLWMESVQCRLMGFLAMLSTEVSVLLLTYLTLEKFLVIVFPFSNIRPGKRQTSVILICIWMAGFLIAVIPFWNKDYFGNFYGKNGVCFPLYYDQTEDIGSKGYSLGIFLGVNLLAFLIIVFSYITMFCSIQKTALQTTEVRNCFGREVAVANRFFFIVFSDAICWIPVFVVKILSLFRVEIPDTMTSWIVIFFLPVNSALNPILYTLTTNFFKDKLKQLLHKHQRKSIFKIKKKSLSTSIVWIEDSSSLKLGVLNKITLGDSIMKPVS
Procedure for GPCR142: as §8

With `CC[C@H](C)[C@H](NC(=O)[C@H](Cc1ccccc1)NC(=O)[C@H](CCC(=O)O)NC(=O)[C@H](CCCNC(=N)N)NC(=O)CNC(=O)[C@H](CS)NC(=O)[C@H](CC(C)C)NC(=O)[C@H](CCCNC(=N)N)NC(=O)[C@@H](NC(=O)CNC(=O)[C@H](Cc1ccc(O)cc1)NC(=O)[C@@H]1CCCN1C(=O)[C@H](C)NC(=O)[C@H](C)NC(=O)[C@@H](N)CCCNC(=N)N)C(C)C)C(=O)N[C@@H](CCCNC(=N)N)C(=O)N[C@@H](C)C(=O)N[C@H](C(=O)N[C@H](C(=O)N[C@@H](Cc1ccccc1)C(=O)N[C@H](C(=O)N[C@@H](CS)C(=O)NCC(=O)NCC(=O)N[C@@H](CO)C(=O)N[C@@H](CCCNC(=N)N)C(=O)N[C@@H](Cc1c[nH]c2ccccc12)C(=O)O)[C@@H](C)O)[C@@H](C)CC)C(C)C` [relaxin-3 B-chain, reference compound], the EC50 at GPCR135 [1] (read-out: EC50 to activate GPCR135) is 88 nM; on GPCR142 (read-out: EC50 to activate GPCR142) it was 125 nM.

Regarding “R3/I3: chimeric polypeptide: human relaxin-3 B-chain and INSL3 A-chain; mature polypeptide SEQ ID NO:21 (RAAPYGVRLCGREFIRAVIFTCGGSRWNPARYCCLSGCTQQDLLTLC; Human Relaxin-3/Insulin-like 3 chimeric mature polypeptide)”, in the test with LGR7 [2], the “IC50 for binding LGR7” value was “low nanomolar range”. In addition, in the test with GPCR135 [1], the “EC50 to activate GPCR135” value is recorded as “low nanomolar range”. Moreover, the “EC50 to activate GPCR142” value with GPCR142 was “low nanomolar range”.

With “R3/R1: chimeric polypeptide: human relaxin-3 B-chain and relaxin-1 A-chain; mature polypeptide SEQ ID NO:19 (RAAPYGVRLCGREFIRAVIFTCGGSRWPYVALFEKCCLIGCTKRSLAKYC; Human Relaxin-3/Relaxin-1 chimeric mature polypeptide)”, the “IC50 for binding LGR7” value with LGR7 [2] is recorded as “low nanomolar range”. Also, the “EC50 to activate GPCR135” value with GPCR135 [1] is reported as “low nanomolar range”. Further, the “EC50 to activate GPCR142” value with GPCR142 is on record as “low nanomolar range”. The “activation of LGR8, in words” value with LGR8 (highest concentration tested 1 μM) is given as “marginal activity at the highest concentration tested (1 μM)”.

Turning to “R3/R2: chimeric polypeptide: human relaxin-3 B-chain and relaxin-2 A-chain; mature polypeptide SEQ ID NO:20 (RAAPYGVRLCGREFIRAVIFTCGGSRWQLYSALANKCCHVGCTKRSLARFC; Human Relaxin-3/Relaixin-2 chimeric mature polypeptide)”, in the test with LGR7 [2], the “IC50 for binding LGR7” value is recorded as “low nanomolar range”. In the test with GPCR135 [1], the “EC50 to activate GPCR135” value was “low nanomolar range”. The “EC50 to activate GPCR142” value with GPCR142 is given as “low nanomolar range”.

For “[^125I]-relaxin-3: radioiodinated human relaxin-3 used as tracer (RAAPYGVRLCGREFIRAVIFTCGGSRWDVLAGLSSSCCKWGCSKSEISSLC; ends and bridges not checked; also: radioiodinated ([125I]), site not given here) [reference compound]”, in the test with GPCR135 [3], the “binding to GPCR135 expressing cells, in words” value is “high affinity”. Besides, the “binding to LGR7, in words” value with LGR7 [4] is given as “did”.

B1: porcine relaxin: porcine relaxin, reference ligand for LGR7 and LGR8 (protein)
chain: QSTNDFIKACGRELVRLWVEICGSVSWGRTALSLEEPQLETGPPAETMPSSITKDAEILKMMLEFVPNLPQELKATLSERQPSLRELQQSASKDSNLNFEEFKKIILNRQNEAEDKSLLELKNLGLDKHSRKKRLFRMTLSEKCCQVGCIRKDIARLC
With B1, the EC50 in the test with LGR7 [5] was found to be 0.25 nM; with LGR8 (ligand stimulated β-galactosidase expression, mean ± SEM, n = 3, read-out: EC50 to activate LGR8), 1.5 nM.

One may read the EC50 as the midpoint of the concentration-response curve.
